From publication doi:10.1101/245167 (bioRxiv, 2018)

B2: Ska3 (as subunit of the wild-type Ska complex) (natural protein)
chain: MDPIRSFCGKLRSLASTLDCETARLQRALDGEESDFEDYPMRILYDLHSEVQTLKDDVNILLDKARLENQEGIDFIKATKVLMEKNSMDIMKIREYFQKYGYSPRVKKNSVHEQEAINSDPELSNCENFQKTDVKDDLSDPPVASSCISEKSPRSPQLSDFGLERYIVSQVLPNPPQAVNNYKEEPVIVTPPTKQSLVKVLKTPKCALKMDDFECVTPKLEHFGISEYTMCLNEDYTMGLKNARNNKSEEAIDTESRLNDNVFATPSPIIQQLEKSDAEYTNSPLVPTFCTPGLKIPSTKNSIALVSTNYPLSKTNSSSNDLEVEDRTSLVLNSDTCFENLTDPSSPTISSYENLLRTPTPPEVTKIPEDILQLLSKYNSNLATPIAIKAVPPSKRFLKHGQNIRDVSNKEN

How the values were obtained:
Assay in all cases: cross-linking
[1] = target: B2
[2] = target: T1, Hec1 (as subunit of the wild-type Ndc80 complex) (human, UniProt O14777 1-642)
T1 sequence: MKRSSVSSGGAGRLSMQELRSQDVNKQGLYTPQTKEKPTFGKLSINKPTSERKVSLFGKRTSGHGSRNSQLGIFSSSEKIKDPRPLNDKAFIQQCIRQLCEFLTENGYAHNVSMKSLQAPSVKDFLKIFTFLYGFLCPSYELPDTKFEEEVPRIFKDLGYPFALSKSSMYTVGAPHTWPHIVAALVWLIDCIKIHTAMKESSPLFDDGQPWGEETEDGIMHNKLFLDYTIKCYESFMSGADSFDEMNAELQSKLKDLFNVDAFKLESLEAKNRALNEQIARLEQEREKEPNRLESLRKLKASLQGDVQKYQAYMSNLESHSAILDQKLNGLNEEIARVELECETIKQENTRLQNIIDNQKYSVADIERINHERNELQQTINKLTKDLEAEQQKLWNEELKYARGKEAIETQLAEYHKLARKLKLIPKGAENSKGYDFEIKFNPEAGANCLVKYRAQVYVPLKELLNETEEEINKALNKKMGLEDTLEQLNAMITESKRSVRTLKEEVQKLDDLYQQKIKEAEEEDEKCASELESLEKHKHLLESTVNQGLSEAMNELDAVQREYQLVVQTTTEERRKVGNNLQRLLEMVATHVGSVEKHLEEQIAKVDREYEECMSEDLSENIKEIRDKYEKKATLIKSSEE

[3] = target: T2, Nuf2 (as subunit of the wild-type Ndc80 complex) (human, UniProt Q9BZD4 1-464)
T2 sequence: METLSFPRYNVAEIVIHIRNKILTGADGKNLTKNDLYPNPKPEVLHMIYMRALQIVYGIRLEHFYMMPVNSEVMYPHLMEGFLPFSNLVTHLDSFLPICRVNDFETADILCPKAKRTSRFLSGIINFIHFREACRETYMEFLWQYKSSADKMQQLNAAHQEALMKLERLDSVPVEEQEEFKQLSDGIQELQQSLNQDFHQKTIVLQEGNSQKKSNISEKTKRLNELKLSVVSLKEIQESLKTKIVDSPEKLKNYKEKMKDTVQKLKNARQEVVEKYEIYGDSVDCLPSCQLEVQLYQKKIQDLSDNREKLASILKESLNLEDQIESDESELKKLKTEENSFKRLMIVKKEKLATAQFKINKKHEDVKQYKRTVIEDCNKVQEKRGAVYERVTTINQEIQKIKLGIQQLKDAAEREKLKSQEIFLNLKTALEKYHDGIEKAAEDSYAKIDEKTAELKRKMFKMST

[4] = target: human Ndc80 complex (Hec1, Nuf2, Spc24-His, Spc25), wild type (human, UniProt O14777;Q9BZD4;Q8NBT2;Q9HBM1)

B1: Spc25 (as subunit of the wild-type Ndc80 complex) (natural protein)
chain: MVEDELALFDKSINEFWNKFKSTDTSCQMAGLRDTYKDSIKAFAEKLSVKLKEEERMVEMFLEYQNQISRQNKLIQEKKDNLLKLIAEVKGKKQELEVLTANIQDLKEEYSRKKETISTANKANAERLKRLQKSADLYKDRLGLEIRKIYGEKLQFIFTNIDPKNPESPFMFSLHLNEARDYEVSDSAPHLEGLAEFQENVRKTNNFSAFLANVRKAFTATVYN
[1]
  binding result: binds

## B2
[2]
  binding result: binds
[3]
  binding result: binds

B3: Ska complex^(Ska1 ΔMTBD) (full length Ska2 and Ska3 with Ska1 residues 1-131), without His-tag (complex)
chain 1: MASSDLEQLCSHVNEKIGNIKKTLSLRNCGQEPTLKTVLNKIGDEIIVINELLNKLELEIQYQEQTNNSLKELCESLEEDYKDIEHLKENVPSHLPQVTVTQSCVKGSDLDPEEPIKVEEPEPVKKPPKEQ
chain 2: MEAEVDKLELMFQKAESDLDYIQYRLEYEIKTNHPDSASEKNPVTLLKELSVIKSRYQTLYARFKPVAVEQKESKSRICATVKKTMNMIQKLQKQTDLELSPLTKEEKTAAEQFKFHMPDL
chain 3: MDPIRSFCGKLRSLASTLDCETARLQRALDGEESDFEDYPMRILYDLHSEVQTLKDDVNILLDKARLENQEGIDFIKATKVLMEKNSMDIMKIREYFQKYGYSPRVKKNSVHEQEAINSDPELSNCENFQKTDVKDDLSDPPVASSCISEKSPRSPQLSDFGLERYIVSQVLPNPPQAVNNYKEEPVIVTPPTKQSLVKVLKTPKCALKMDDFECVTPKLEHFGISEYTMCLNEDYTMGLKNARNNKSEEAIDTESRLNDNVFATPSPIIQQLEKSDAEYTNSPLVPTFCTPGLKIPSTKNSIALVSTNYPLSKTNSSSNDLEVEDRTSLVLNSDTCFENLTDPSSPTISSYENLLRTPTPPEVTKIPEDILQLLSKYNSNLATPIAIKAVPPSKRFLKHGQNIRDVSNKEN
[4]
  binding result: binds

B4: Spc24-His (as subunit of the wild-type Ndc80 complex) (natural protein)
chain: MAAFRDIEEVSQGLLSLLGANRAEAQQRRLLGRHEQVVERLLETQDGAEKQLREILTMEKEVAQSLLNAKEQVHQGGVELQQLEAGLQEAGEEDTRLKASLLQLTRELEELKEIEADLERQEKEVDEDTTVTIPSAVYVAQLYHQVSKIEWDYECEPGMVKGIHHGPSVAQPIHLDSTQLSRKFISDYLWSLVDTEW
[1]
  binding result: binds
